Measurements published in patent US7994123B2, “Hybrid proteins with ErbB4 extracellular domain and neuregulin heparin-binding domain for targeting” (Wayne State University, priority 2004, dated 2011).

B1: GlyB4: purified HBD-S-B4 fusion with HIS tag instead of HA tag (protein)
chain: QSGYKKKERGSGKKPESAAGSQSPALPPRLKEMKSQESAAGSKLVLRCETSSEYSSLRFKWFKPNGNELNRKNKQNIKIQKKPGKSELRINKASLADSGEYMCKVISKLGNDSASANITIVESNEIITGMPASTEGAYVSSESPIRISVSTEGANTSSSTSTSTTGTSGTQSVCAGTENKLSSLSDLEQQYRALRKYYENCEVVMGNLEITSIEHNRDLSFLRSVREVTGYVLVALNQFRYLPLENLRIIRGTKLYEDRYALAIFLNYRKDGNFGLQELGLKNLTEILNGGVYVDQNKFLCYADTIHWQDIVRNPWPSNLTLVSTNGSSGCGRCHKSCTGRCWGPTENHCQTLTRTVCAEQCDGRCYGPYVSDCCHRECAGGCSGPKDTDCFACMNFNDSGACVTQCPQTFVYNPTTFQLEHNFNAKYTYGAFCVKKCPHNFVVDSSSCVRACPSSKMEVEENGIKMCKPCTDICPKACDGIGTGSLMSAQTVDSSNIDKFINCTKINGNLIFLVTGIHGDPYNAIEAIDPEKLNVFRTVREITGFLNIQSWPPNMTDFSVFSNLVTIGGRVLYSGLSLLILKQQGITSLQFQSLKEISAGNIYITDNSNLCYYHTINWTTLFSTINQRIVIRDNRKAENCTAEGMVCNHLCSSDGCWGPGPDQCLSCRRFSRGRICIESCNLYDGEFREFENGSICVECDPQCEKMEDGLLTCHGPGPDNCTKCSHFKDGPNCVEKCPDGLQGANSFIFKYADPDRECHPCHPNCTQGCNGPTSHDCIYYPWTGHSTLPQHAKN
modifications: left off: small tags and cut ends
B2: NRG: recombinant neuregulin β1 IG-EGF form provided by Amgen (protein)
chain: KKKERGSGKKPESAAGSQSPALPPRLKEMKSQESAAGSKLVLRCETSSEYSSLRFKWFKNGNELNRKNKPQNIKIQKKPGKSELRINKASLADSGEYMCKVISKLGNDSASANITIVESNEIITGMPASTEGAYVSSESPIRISVSTEGANTSSSTSTSTTGTSHLVKCAEKEKTFCVNGGECFMVKDLSNPSRYLCKCQPGFTGARCTENVPMKVQNQEKAEELYQKRVLTITGICIALLVVGIMCVVAYCKTKKQRKKLHD

Columns and labels:
[1] = system: MCF10CA1 human breast cancer cells; experiment: Cell proliferation assay, MCF10CA1; type: cell-based
Description: (§1) Cell proliferation assays: All three breast epithelial cell lines were plated at 5000 cells/well in 48 well plates in regular MCF10A/AT or MCF10CA1 media. After incubation for 3 days, 1 nM NRG in MCF10A/AT media or just MCF10A/AT media alone were applied to the cells for another 24 hours followed by washing them with culture media and then counting cell numbers using an hemocytometer on the 4th, 5th, 6th, 7th and 8th day.
(§2) After 2 days, the Optimem I conditioned media was concentrated by Centricon at 4° C. 40 μl of IgB4 conditioned media or 10 μM of tyrosine kinase inhibitor AG1478 were combined with […] 1 nM NRG in MCF10A/AT media for 15 min at room temperature before being added to MCF10CA1 cells for 30 min treatment. […] The amount of each antagonist was determined empirically based on its ability to block NRG-induced activation of L6 cells.

[2] = system: Mat BIII rat breast cancer cells; experiment: Rat syngeneic breast cancer spontaneous metastasis model; type: in vivo; conditions: female Fisher rats, 14-day osmotic mini-pump, about 4 mg/kg/day
Description: The rat syngeneic breast cancer system (Xing et al., Int. J. Cancer 67:423-429 (1996) employs Mat BIII rat breast cancer cells. Tumor cells, for example about 10^6 in 0.1 ml PBS, are inoculated into the mammary fat pads of female Fisher rats. At the time of inoculation, a 14-day Alza osmotic mini-pump is implanted intraperitoneally to dispense the test compound. The compound is dissolved in PBS (e.g., 200 mM stock), sterile filtered and placed in the minipump to achieve a release rate of about 4 mg/kg/day. Control animals receive vehicle (PBS) alone or a vehicle control peptide in the minipump. Animals are sacrificed at about day 14. In the rats treated with the active compounds of the present invention, significant reductions in the size of the primary tumor and in the number of metastases in the spleen, lungs, liver, kidney and lymph nodes (enumerated as discrete foci) are observed. Histological and immunohistochemical analysis reveal increased necrosis and signs of apoptosis in tumors in treated animals. Large necrotic areas are seen in tumor regions lacking neovascularization. […] In contrast, treatment with control polypeptides fails to cause a significant change in tumor size or metastasis.

[3] = system: erbB receptor phosphorylation (p185) in L6 cells; experiment: L6 assay: block of NRG-induced erbB receptor phosphorylation (p185); type: cell-based; conditions: preincubated with L6 muscle cells one hour, thoroughly washed before adding recombinant neuregulin
Description: (§3) 4. Cell culture: The L6 cells were cultured in DMEM supplemented with 10% fetal calf serum, 1 mM L-glutamine and 1000 U/ml penicillin/streptomycin at 37° C. in 10% CO2 incubator. The HEK293 cells were cultured in DMEM with 10% fetal calf serum, 1 mM L-glutamine, 2 mM sodium pyruvate, 0.1 mM non-essential amino acids, 1000 U/ml penicillin/streptomycin at 37° C. in 10% CO2 incubator. The selective antibiotics Geneticin 200 μg/ml (Gibco-Invitrogen) was added to the cell cultures of stably transfected HEK293 cells harboring the NRG antagonists. 5. Stable expression of NRG antagonists in HEK293 cells: HEK293 cells were cultured in […] flasks to 80% confluence and transfected with the four NRG antagonist constructs using lipofectamine 2000 (Invitrogen Life Science) as instructed. The antibiotic Geneticin was then added at a concentration of 400 μg/ml to the transfected HEK293 cells to select the positive antagonist transfected cells. After three weeks of Geneticin selection, the transfected HEK293 cells were diluted and plated in 96 well plates to yield single positive clones. The single clones that expressed the highest levels of antagonists (confirmed by western blot using HA antibody) were then maintained in culture media with 200 μg/ml Geneticin. Optimem I (Gibco-Invitrogen) was applied to the stably transfected NRG antagonist cell lines at 37° C. in 10% CO2 incubator for 2 days. The conditioned Optimem I media was then used in the following experiments. 6. Heparin column binding: The conditioned media containing the four NRG antagonists was passed through the heparin column to allow binding to heparin. The excessive unbound antagonist proteins were washed off by 1×PBS twice. The antagonist proteins were then eluted by increasing concentration of NaCl (0.25, 0.3, 0.4, 0.5, 0.6 and 1M). The flow through solution from each step was examined by anti-HA western blots, as described later, to determine heparin binding ability of the antagonists. 7. Purification and quantitation of recombinant proteins: The NRG antagonists were purified by anti-HA affinity matrix (3F10) (rat mAb) according to manufacturer's instructions. Briefly, the column was equilibrated with buffer containing 20 mM Tris pH 7.5, 0.1 M NaCl, 0.1 M EDTA, and each antagonist in conditioned medium was applied individually to the anti-HA affinity matrix. Excess unbound antagonist proteins were washed with 20 volume of washing buffer (20 mM Tris pH 7.5, 0.1 M NaCl, 0.1 M EDTA and 0.05% Tween 20). The bound NRG antagonists were eluted with 0.1 M glycine (pH 2). The purified recombinant protein was then quantified using a BioRad Protein Assay kit (Bio-Rad, Hercules, Calif.) 8. Silver stain: Both the conditioned media and the purified NRG antagonists were resolved on 7.5% reducing SDS-polyacrylamide gels. The gel was fixed with 30% ethanol and 10% acetic acid for 30 min. 10% ethanol and ultrapure water were used subsequently to wash the gel before staining with SilverSNAP stain solution with enhancer for 30 min. The gel was then developed using SilverSNAP developer solution with enhancer. 5% acetic acid was used to stop the reaction when the desired band intensity was reached. The gel was dried on filter paper using a vacuum gel dyer. 9. […] Positive control L6 cells were treated with 50 pM NRG alone. L6 cell lysates were prepared and run on 5% SDS-PAGE gel. Western blots of erbB receptor phosphorylation were performed using 4G10 antibody. 10. Western blot: Western blots were performed on both conditioned NRG antagonist media and the antagonist-treated L6 cells. The antagonist proteins and the L6 cells were solubilized in SDS sample buffer and boiled for 5 min as described above (see also Li et al., supra). The NRG antagonists run on 7.5% SDS-PAGE gel were detected by anti-HA mAb HA.11. Phosphotyrosine mAb 4G10 was used to detect phosphorylated erbB receptor (p185) in L6 cell western blot analysis following resolution on overrun 5% reducing SDS-polyacrylamide gels. […]

[4] = Heparin column binding; conditions: conditioned media; anti-HA western blot of flow through and elution
Description: as §3

[5] = system: erbB receptor phosphorylation (p185) in MCF10CA1 cells; experiment: p185 receptor phosphorylation western blot, MCF10CA1; type: cell-based, human; conditions: exogenous NRG, 30 min; above high basal levels
Description: (§4) Western blots and L6 muscle assays: P185 receptor phosphorylation of the three cell lines was measured by phosphotyrosine western blots after NRG treatment for 30 min on 3 day old cultures as described in WO 03/012045 and Li Q & Loeb J A (2001) J Biol Chem; 276:38068-75. […] The media was discarded and phosphotyrosine western blots were performed as above. The membranes were stripped and reprobed with polyclonal rabbit erbB2 for the detection of overall erbB2 protein that was used for quantitation.
as §2

[6] = system: MCF10AT cells; experiment: Cell proliferation assay, MCF10AT; type: cell-based, human; conditions: 1 nM NRG for 24 hours, three days after plating
Description: as §1

[7] = system: eight NRG-response proliferation genes in MCF10CA1 cells; experiment: Northern blot of proliferation genes, MCF10CA1; type: cell-based, human; conditions: 1 nM NRG for 24 hours
Description: (§5) RNA preparation and Northern blotting: MCF10A, MCF10AT and MCFCA1 cells were cultured in 25 cm flasks to approximately 60% confluence. The cells were treated with 1 nM NRG in MCF10A/AT media for 24 hours. The cells were then washed with phosphate buffered saline (PBS) once and harvested. Total RNA was extracted from cells using Ultraspec (Biotecx Laboratories, Inc.), “cleaned up” by Rneasy® purification kit (Qiagen, Valencia, Calif.), and subsequently to quantified using a fluorescent dye binding method called Ribogreen (Molecular Probes, Eugene, Oreg.). Northern blots were performed as described previously (Li & Loeb, supra) on RNA extracted from the 3 breast epithelial cell lines after NRG treatment in MCF10A/AT media verses control MCF10A/AT media. Probes were generated by PCR and then prepared by random priming to full-length cDNA clones from the clones provided by Alphagene Inc as described. The membranes were reprobed with a ^32P-labeled GAPDH probe for normalization.

[8] = system: erbB receptor phosphorylation (p185) in MCF10A cells; experiment: p185 receptor phosphorylation western blot, MCF10A; type: cell-based, human; conditions: exogenous NRG, 30 min
Description: as §4

[9] = system: MCF10A cells; experiment: Cell proliferation assay, MCF10A; type: cell-based, human; conditions: 1 nM NRG for 24 hours, three days after plating
Description: as §1

[10] = system: eight NRG-response proliferation genes in MCF10A cells; experiment: Northern blot of proliferation genes, MCF10A; type: cell-based, human; conditions: 1 nM NRG for 24 hours
Description: as §5

[11] = system: eight NRG-response proliferation genes in MCF10AT cells; experiment: Northern blot of proliferation genes, MCF10AT; type: cell-based, human; conditions: 1 nM NRG for 24 hours
Description: as §5

[12] = system: erbB receptor phosphorylation (p185) in MCF10AT cells; experiment: p185 receptor phosphorylation western blot, MCF10AT; type: cell-based, human; conditions: exogenous NRG, 30 min
Description: as §4

binding to heparin column [4]	Molecule	effectiveness at blocking proliferation compared with Herceptin ([1]; 1 nM GlyB4 versus Herceptin 100 μg/ml)	blocking of cancer cell growth ([1]; 1 nM, treated on days 0, 3 and 6, compared to control cells or cells treated with B4)	potency relative to control polypeptides [2]	sustained blockade of neuregulin signaling (p185 phosphorylation) [3]	effect on growth rate of MCF10CA1 cells ([1]; 1 nM NRG for 24 hours, three days after plating)	induction of erbB receptor phosphorylation (p185), MCF10CA1 [5]	effect on growth rate of MCF10AT cells [6]	regulation of 8 NRG-response genes, MCF10CA1 [7]	induction of erbB receptor phosphorylation (p185), MCF10A [8]	effect on growth rate of MCF10A cells [9]	regulation of 8 NRG-response genes, MCF10A [10]	regulation of 8 NRG-response genes, MCF10AT [11]	induction of erbB receptor phosphorylation (p185), MCF10AT [12]
binds to heparin	B1	comparably, if not slightly more, effective	significantly more potent at blocking cancer cell growth	at least two-fold more potent than the relevant control polypeptides	complete and sustained blockade of neuregulin signaling									
	B2					increased the initial growth rate	only a small incremental amount of phosphorylation	only a small, initial reduction in growth rate	very little down-regulation of only a few of these genes	induced strong erbB receptor phosphorylation	sustained reduction in the growth rate	rapid down-regulation of all 8 of these genes	rapid down-regulation of all 8 of these genes	induced strong erbB receptor phosphorylation
